This data set concerns the molecule itself. Nature of the data set: CD spectrometry of 300 uM peptide in phosphate buffer pH 7.5 (self-assembly into nanofiber).

The results in this text go back to US20060089489A1 (MATSUSHITA ELECTRIC INDUSTRIAL, published 2006).

B1: Glu-Phe-Ile-Val-Ile-Phe-Lys peptide (EK7aa) (peptide)
peptide: EFIVIFK
notes: Synthetic designed peptide that self-assembles into amyloid-like nanofibers
For B1, the binding result is reported as “binds”.
